Tests used:
[1] = test system: HeLa Kyoto; assay: solubility in G1/S (NP-40 vs SDS abundance) (log2 ratio); higher = more soluble; settings: cell cycle stage: G1/S
[2] = test system: HeLa Kyoto; assay: solubility change mitosis vs G1/S (difference of NP-40 vs SDS log2 ratios) (log2 ratio difference); higher = more soluble in mitosis
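For solubility change mitosis vs G1/S (difference of NP-40 vs SDS log2 ratios) in this document: synchronized HeLa Kyoto cells (double thymidine block for G1/S, nocodazole release for mitosis), protein amounts in NP-40 versus SDS lysates quantified by mass spectrometry, three biological replicates.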
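For solubility in G1/S (NP-40 vs SDS abundance) in this document: HeLa Kyoto cells arrested at G1/S by double thymidine block, proteins quantified by TMT10plex mass spectrometry in mild NP-40 versus SDS extracts, three biological replicates.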

Sequence: MPGRAEAGEAEEEAGAGSGSEAEEDALWERIEGVRHRLARALNPAKLTPYLRQCRVIDEQDEEEVLSTYRFPCRVNRTGRLMDILRCRGKRGYEAFLEALEFYYPEHFTLLTGQEPAQRCSMILDEEGPEGLTQFLMTEVRRLREARKSQLQREQQLQARGRVLEEERAGLEQRLRDQQQAQERCQRLREDWEAGSLELLRLKDENYMIAMRLAQLSEEKNSAVLRSRDLQLAVDQLKLKVSRLEEECALLRRARGPPPGAEEKEKEKEKEKEPDNVDLVSELRAENQRLTASLRELQEGLQQEASRPGAPGSERILLDILEHDWREAQDSRQELCQKLHAVQGELQWAEELRDQYLQEMEDLRLKHRTLQKDCDLYKHRMATVLAQLEEIEKERDQAIQSRDRIQLQYSQSLIEKDQYRKQVRGLEAERDELLTTLTSLEGTKALLEVQLQRAQGGTCLKACASSHSLCSNLSSTWSLSEFPSPLGGPEATGEAAVMGGPEPHNSEEATDSEKEINRLSILPFPPSAGSILRRQREEDPAPPKRSFSSMSDITGSVTLKPWSPGLSSSSSSDSVWPLGKPEGLLARGCGLDFLNRSLAIRVSGRSPPGGPEPQDKGPDGLSFYGDRWSGAVVRRVLSGPGSARMEPREQRVEAAGLEGACLEAEAQQRTLLWNQGSTLPSLMDSKACQSFHEALEAWAKGPGAEPFYIRANLTLPERADPHALCVKAQEILRLVDSAYKRRQEWFCTRVDPLTLRDLDRGTVPNYQRAQQLLEVQEKCLPSSRHRGPRSNLKKRALDQLRLVRPKPVGAPAGDSPDQLLLEPCAEPERSLRPYSLVRPLLVSALRPVVLLPECLAPRLIRNLLDLPSSRLDFQVCPAESLSGEELCPSSAPGAPKAQPATPGLGSRIRAIQESVGKKHCLLELGARGVRELVQNEIYPIVIHVEVTEKNVREVRGLLGRPGWRDSELLRQCRGSEQVLWGLPCSWVQVPAHEWGHAEELAKVVRGRILQEQARLVWVECGSSRGCPSSSEA [CARD10]
- solubility in G1/S (log2) [1]: -0.0585
- solubility change mitosis (log2) [2]: 0.0575

Sequence: MPLLVEGRRVRLPQSAGDLVRAHPPLEERARLLRGQSVQQVGPQGLLYVQQRELAVTSPKDGSISILGSDDATTCHIVVLRHTGNGATCLTHCDGTDTKAEVPLIMNSIKSFSDHAQCGRLEVHLVGGFSDDRQLSQKLTHQLLSEFDRQEDDIHLVTLCVTELNDREENENHFPVIYGIAVNIKTAEIYRASFQDRGPEEQLRAARTLAGGPMISIYDAETEQLRIGPYSWTPFPHVDFWLHQDDKQILENLSTSPLAEPPHFVEHIRSTLMFLKKHPSPAHTLFSGNKALLYKKNEDGLWEKISSPGS [NTAN1]
- solubility in G1/S (log2) [1]: -0.142
- solubility change mitosis (log2) [2]: 0.176

Sequence: MPLPGGLWWLLCCRRGFTLLHRDYGDGELSGDGDEDEDEETFELRTPSPAGGGRGPLEVTLTQPVRSGPVSNRLQSWEETWSLIPEKGLPEDDPDIVVKGWLYREPRGGGARPWLPPRRAWFVLTRDSLDQFSSSGKGARRLGSLVLTSLCSVTGPERRRKETGLWSVTVSGRKHSVRLCSPRQAEAERWGVALREVIASKAPLETPTQLLLRDIQESCGDPEAVALIYLRNPILRHTSGALYAPLLPLPYGVSAPGPGYAPLREEAVRLFLALQALEGARRPGPLMQGVLQTCRDLPALRDELFLQLAKQTSGPAGPPGLPATQDPAALRYWQLLTCMSCTFRPGGAVRGHLLGHLERTEQALPDSELAEYARFIRKALGRTRGRELVPSLAEISALSQRQELLCTVHCPGAGACAVAIDSHTTAGEVARELVGRLGLARSRNAFALYEQRGAQERALAGGTLVADVLTRFENLAAEEAGLEDSPDSGWRLCLRLHGPLHPEGLSPDGHELPFLFEQAHALLLRGRPPPPDDTLRALAALRLQSLQRDFSPRVPLPRLDRLLPPPAPPREDPPRPTPRPPPSAALLAGALWSPGLAKRRAERARRGGAGRTAGSIAREGGGGAGTAAAVLGGWKRLRGMGRAEAMAAYLALAAQCPGFGAARYDVLELSTEPGRGAPQKLCLGLGAKAMSLSRPGETEPIHSVSYGHVAACQLMGPHTLALRVGESQLLLQSPQVEEIMQLVNAYLANPSPERPCSSSSPPCQDLPDTSPPSQRPGLDEPQGQSGCLGQLQD [PLEKHH3]
- solubility in G1/S (log2) [1]: 0.00769
- solubility change mitosis (log2) [2]: -0.16

Sequence: MPLRDKYCQTDHHHHGCCEPVYILEPGDPPLLQQPLQTSKSGIQQIIECFRSGTKQLKHILLKDVDTIFECKLCRSLFRGLPNLITHKKFYCPPSLQMDDNLPDVNDKQSQAINDLLEAIYPSVDKREYIIKLEPIETNQNAVFQYISRTDNPIEVTESSSTPEQTEVQIQETSTEQSKTVPVTDTEVETVEPPPVEIVTDEVAPTSDEQPQESQADLETSDNSDFGHQLICCLCRKEFNSRRGVRRHIRKVHKKKMEELKKYIETRKNPNQSSKGRSKNVLVPLSRSCPVCCKSFATKANVRRHFDEVHRGLRRDSITPDIATKPGQPLFLDSISPKKSFKTRKQKSSSKAEYNLTACKCLLCKRKYSSQIMLKRHMQIVHKITLSGTNSKREKGPNNTANSSEIKVKVEPADSVESSPPSITHSPQNELKGTNHSNEKKNTPAAQKNKVKQDSESPKSTSPSAAGGQQKTRKPKLSAGFDFKQLYCKLCKRQFTSKQNLTKHIELHTDGNNIYVKFYKCPLCTYETRRKRDVIRHITVVHKKSSRYLGKITASLEIRAIKKPIDFVLNKVAKRGPSRDEAKHSDSKHDGTSNSPSKKYEVADVGIEVKVTKNFSLHRCNKCGKAFAKKTYLEHHKKTHKANASNSPEGNKTKGRSTRSKALV [ZNF800]
- solubility in G1/S (log2) [1]: -3.34
- solubility change mitosis (log2) [2]: 1.43

Sequence: MPLTGVGPGSCRRQIIRALCLLLLLLHAGSAKNIWKRALPARLAEKSRAEEAGAPGGPRQPRADRCPPPPRTLPPGACQAARCQADSECPRHRRCCYNGCAYACLEAVPPPPVLDWLVQPKPRWLGGNGWLLDGPEEVLQAEACSTTEDGAEPLLCPSGYECHILSPGDVAEGIPNRGQCVKQRRQADGRILRHKLYKEYPEGDSKNVAEPGRGQQKHFQ [WFDC1]
- solubility in G1/S (log2) [1]: 0.101
- solubility change mitosis (log2) [2]: 0.522

Sequence: MPPGKVLQPVLKMKVDELFLYWLSEASTQRMLQDCLRRIKAPGRDQPTPGDGEQPGAWPTAPLAAPRPSGLEPPGTPGPGPALPLGAASSPRNAPHVRGTRRSAGTRVVQTRKEEPLPPATSQSIPTFYFPRGRPQDSVNVDAVISKIESTFARFPHERATMDDMGLVAKACGCPLYWKGPLFYGAGGERTGSVSVHKFVAMWRKILQNCHDDAAKFVHLLMSPGCNYLVQEDFVPFLQDVVNTHPGLSFLKEASEFHSRYITTVIQRIFYAVNRSWSGRITCAELRRSSFLQNVALLEEEADINQLTEFFSYEHFYVIYCKFWELDTDHDLLIDADDLARHNDHALSTKMIDRIFSGAVTRGRKVQKEGKISYADFVWFLISEEDKKTPTSIEYWFRCMDLDGDGALSMFELEYFYEEQCRRLDSMAIEALPFQDCLCQMLDLVKPRTEGKITLQDLKRCKLANVFFDTFFNIEKYLDHEQKEQISLLRDGDSGGPELSDWEKYAAEEYDILVAEETAGEPWEDGFEAELSPVEQKLSALRSPLAQRPFFEAPSPLGAVDLYEYACGDEDLEPL [PPP2R3B]
- solubility in G1/S (log2) [1]: 0.0833
- solubility change mitosis (log2) [2]: -0.203

Sequence: MQAEGRGTGGSTGDADGPGGPGIPDGPGGNAGGPGEAGATGGRGPRGAGAARASGPRGGAPRGPHGGAASAQDGRCPCGARRPDSRLLELHITMPFSSPMEAELVRRILSRDAAPLPRPGAVLKDFTVSGNLLFMSVRDQDREGAGRMRVVGWGLGSASPEGQKARDLRTPKHKVSEQRPGTPGPPPPEGAQGDGCRGVAFNVMFSAPHI [CTAG2]
- solubility in G1/S (log2) [1]: 1
- solubility change mitosis (log2) [2]: -0.32

Sequence: MQARYSVSSPNSLGVVPYLGGEQSYYRAAAAAAGGGYTAMPAPMSVYSHPAHAEQYPGGMARAYGPYTPQPQPKDMVKPPYSYIALITMAIQNAPDKKITLNGIYQFIMDRFPFYRDNKQGWQNSIRHNLSLNECFVKVPRDDKKPGKGSYWTLDPDSYNMFENGSFLRRRRRFKKKDAVKDKEEKDRLHLKEPPPPGRQPPPAPPEQADGNAPGPQPPPVRIQDIKTENGTCPSPPQPLSPAAALGSGSAAAVPKIESPDSSSSSLSSGSSPPGSLPSARPLSLDGADSAPPPPAPSAPPPHHSQGFSVDNIMTSLRGSPQSAAAELSSGLLASAAASSRAGIAPPLALGAYSPGQSSLYSSPCSQTSSAGSSGGGGGGAGAAGGAGGAGTYHCNLQAMSLYAAGERGGHLQGAPGGAGGSAVDDPLPDYSLPPVTSSSSSSLSHGGGGGGGGGGQEAGHHPAAHQGRLTSWYLNQAGGDLGHLASAAAAAAAAGYPGQQQNFHSVREMFESQRIGLNNSPVNGNSSCQMAFPSSQSLYRTSGAFVYDCSKF [FOXC1]
- solubility in G1/S (log2) [1]: 0.0673
- solubility change mitosis (log2) [2]: -0.0439

Sequence: MQIIRHSEQTLKTALISKNPVLVSQYEKLNAGEQRLMNEAFQPASDLFGPITLHSPSDWITSHPEAPQDFEQFFSDPYRKTPSPNKRSIYIQSIGSLGNTRIISEEYIKWLTGYCKAYFYGLRVKLLEPVPVSVTRCSFRVNENTHNLQIHAGDILKFLKKKKPEDAFCVVGITMIDLYPRDSWNFVFGQASLTDGVGIFSFARYGSDFYSMHYKGKVKKLKKTSSSDYSIFDNYYIPEITSVLLLRSCKTLTHEIGHIFGLRHCQWLACLMQGSNHLEEADRRPLNLCPICLHKLQCAVGFSIVERYKALVRWIDDESSDTPGATPEHSHEDNGNLPKPVEAFKEWKEWIIKCLAVLQK [AMZ2]
- solubility in G1/S (log2) [1]: 0.00677
- solubility change mitosis (log2) [2]: -0.0784

Sequence: MQVSSLNEVKIYSLSCGKSLPEWLSDRKKRALQKKDVDVRRRIELIQDFEMPTVCTTIKVSKDGQYILATGTYKPRVRCYDTYQLSLKFERCLDSEVVTFEILSDDYSKIVFLHNDRYIEFHSQSGFYYKTRIPKFGRDFSYHYPSCDLYFVGASSEVYRLNLEQGRYLNPLQTDAAENNVCDINSVHGLFATGTIEGRVECWDPRTRNRVGLLDCALNSVTADSEINSLPTISALKFNGALTMAVGTTTGQVLLYDLRSDKPLLVKDHQYGLPIKSVHFQDSLDLILSADSRIVKMWNKNSGKIFTSLEPEHDLNDVCLYPNSGMLLTANETPKMGIYYIPVLGPAPRWCSFLDNLTEELEENPESTVYDDYKFVTKKDLENLGLTHLIGSPFLRAYMHGFFMDIRLYHKVKLMVNPFAYEEYRKDKIRQKIEETRAQRVQLKKLPKVNKELALKLIEEEEEKQKSTWKKKVKSLPNILTDDRFKVMFENPDFQVDEESEEFRLLNPLVSKISEKRKKKLRLLEQQELREKEEEEEPEGKPSDAESSESSDDEKAWVEEVRKQRRLLQQEEKVKRQERLKEDQQTVLKPQFYEIKAGEEFRSFKDSATKQKLMNKTLEDRLKIEAKNGTLSVSDTTVGSKQLTFTLKRSEQQKKQQEAEKLHRQERKRLRRSAGHLKSRHKRGRSFH [NOL10]
- solubility in G1/S (log2) [1]: -1.88
- solubility change mitosis (log2) [2]: 0.53

Sequence: MRFMTLLFLTALAGALVCAYDPEAASAPGSGNPCHEASAAQKENAGEDPGLARQAPKPRKQRSSLLEKGLDGAKKAVGGLGKLGKDAVEDLESVGKGAVHDVKDVLDSVL [DCD]
- solubility in G1/S (log2) [1]: -1.49
- solubility change mitosis (log2) [2]: 1.24

Sequence: MRLFLWNAVLTLFVTSLIGALIPEPEVKIEVLQKPFICHRKTKGGDLMLVHYEGYLEKDGSLFHSTHKHNNGQPIWFTLGILEALKGWDQGLKGMCVGEKRKLIIPPALGYGKEGKGKIPPESTLIFNIDLLEIRNGPRSHESFQEMDLNDDWKLSKDEVKAYLKKEFEKHGAVVNESHHDALVEDIFDKEDEDKDGFISAREFTYKHDEL [FKBP14]
- solubility in G1/S (log2) [1]: 0.295
- solubility change mitosis (log2) [2]: -0.053

Sequence: MRLTPRALCSAAQAAWRENFPLCGRDVARWFPGHMAKGLKKMQSSLKLVDCIIEVHDARIPLSGRNPLFQETLGLKPHLLVLNKMDLADLTEQQKIMQHLEGEGLKNVIFTNCVKDENVKQIIPMVTELIGRSHRYHRKENLEYCIMVIGVPNVGKSSLINSLRRQHLRKGKATRVGGEPGITRAVMSKIQVSERPLMFLLDTPGVLAPRIESVETGLKLALCGTVLDHLVGEETMADYLLYTLNKHQRFGYVQHYGLGSACDNVERVLKSVAVKLGKTQKVKVLTGTGNVNIIQPNYPAAARDFLQTFRRGLLGSVMLDLDVLRGHPPAETLP [MTG1]
- solubility in G1/S (log2) [1]: 0.123
- solubility change mitosis (log2) [2]: -0.0796

Reference: the supplement of paper PMC5998384
